According to PMC9482650, “Quantitative fragmentomics allow affinity mapping of interactomes” (Nature Communications, 2022):

T1: TJP3_1, O95049
T1 sequence (O95049 6-103, limits assumed, looked up): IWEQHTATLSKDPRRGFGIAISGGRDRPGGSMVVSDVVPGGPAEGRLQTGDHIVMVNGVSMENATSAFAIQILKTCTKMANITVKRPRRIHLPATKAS

T2: USH1C_1, Q9Y6N9
T2 sequence (Q9Y6N9 82-179, limits assumed, looked up): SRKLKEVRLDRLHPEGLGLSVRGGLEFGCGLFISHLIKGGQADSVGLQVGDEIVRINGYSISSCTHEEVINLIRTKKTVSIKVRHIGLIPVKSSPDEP

T3: RGS12, O14924
T3 sequence (O14924 17-108, limits assumed, looked up): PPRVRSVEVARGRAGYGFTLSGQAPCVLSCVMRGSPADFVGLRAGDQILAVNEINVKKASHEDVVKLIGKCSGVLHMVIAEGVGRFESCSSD

T4: TJP3_2, O95049
T4 sequence (O95049 190-282, limits assumed, looked up): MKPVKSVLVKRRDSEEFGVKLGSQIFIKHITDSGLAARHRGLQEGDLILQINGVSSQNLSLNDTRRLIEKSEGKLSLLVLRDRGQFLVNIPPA

T5: PDZD2_5, O15018
T5 sequence (O15018 2617-2716, limits assumed, looked up): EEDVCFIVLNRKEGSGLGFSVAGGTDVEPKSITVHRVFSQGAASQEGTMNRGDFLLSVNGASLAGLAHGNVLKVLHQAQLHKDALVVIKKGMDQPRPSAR

T6: PDZD4, Q76G19
T6 sequence (Q76G19 125-224, limits assumed, looked up): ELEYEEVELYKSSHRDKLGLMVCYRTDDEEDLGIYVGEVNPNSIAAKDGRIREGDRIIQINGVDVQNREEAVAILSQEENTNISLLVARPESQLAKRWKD

T7: PDZRN3_2, Q9UPQ7
T7 sequence (Q9UPQ7 414-513, limits assumed, looked up): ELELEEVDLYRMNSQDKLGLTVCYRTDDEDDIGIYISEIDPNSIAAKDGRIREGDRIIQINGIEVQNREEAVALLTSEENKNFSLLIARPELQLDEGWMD

T8: PTPN13_4, Q12923
T8 sequence (Q12923 1783-1878, limits assumed, looked up): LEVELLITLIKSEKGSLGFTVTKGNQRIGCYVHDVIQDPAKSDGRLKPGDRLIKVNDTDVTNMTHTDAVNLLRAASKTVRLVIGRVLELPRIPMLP

T9: PDZD2_1, O15018
T9 sequence (O15018 80-192, limits assumed, looked up): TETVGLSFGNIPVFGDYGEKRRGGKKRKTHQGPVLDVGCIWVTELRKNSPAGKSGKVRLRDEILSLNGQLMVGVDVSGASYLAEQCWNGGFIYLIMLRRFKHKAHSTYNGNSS

T10: APBA3_2, O96018
T10 sequence (O96018 480-570, limits assumed, looked up): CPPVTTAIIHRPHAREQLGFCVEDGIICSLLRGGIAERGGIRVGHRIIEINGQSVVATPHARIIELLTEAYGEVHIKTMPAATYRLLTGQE

T11: PDZD7_1, Q9H5P4
T11 sequence (Q9H5P4 81-178, limits assumed, looked up): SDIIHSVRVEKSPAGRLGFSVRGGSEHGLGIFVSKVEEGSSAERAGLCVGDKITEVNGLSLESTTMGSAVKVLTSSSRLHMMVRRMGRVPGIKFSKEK

T12: SIPA1L3, O60292
T12 sequence (O60292 961-1052, limits assumed, looked up): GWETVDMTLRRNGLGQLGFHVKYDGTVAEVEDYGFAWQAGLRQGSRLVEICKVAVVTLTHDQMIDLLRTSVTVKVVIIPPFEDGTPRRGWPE

T13: SHROOM3, Q8TF72
T13 sequence (Q8TF72 20-120, limits assumed, looked up): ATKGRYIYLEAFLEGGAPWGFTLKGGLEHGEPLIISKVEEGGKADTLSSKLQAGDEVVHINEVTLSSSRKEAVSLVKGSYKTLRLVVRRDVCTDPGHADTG

T14: USH1C_2, Q9Y6N9
T14 sequence (Q9Y6N9 206-303, limits assumed, looked up): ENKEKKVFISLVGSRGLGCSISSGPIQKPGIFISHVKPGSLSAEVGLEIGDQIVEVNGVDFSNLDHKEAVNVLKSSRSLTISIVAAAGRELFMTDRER


biological target: GIPC3, Q8TF64; assay: holdup assay; design: key: below the threshold = too weak to quantify, mostly under pKd 3.1 to 4; conditions: plain residues with an end cap or a label only (N-terminal biotin on a linker: ttds)
Sequence (Q8TF64 107-202): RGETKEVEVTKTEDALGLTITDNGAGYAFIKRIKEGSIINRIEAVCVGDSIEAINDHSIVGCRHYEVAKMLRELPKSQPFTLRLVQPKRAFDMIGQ

Binder	pKd
SVWLRKETRV [CYSLTR2, Q9NS75]	below the threshold
RSLEEEESQL [GRASP, Q7Z6J2]	below the threshold

biological target: PDLIM4, P50479; assay: holdup assay; design: key: below the threshold = too weak to quantify, mostly under pKd 3.1 to 4; conditions: plain residues with an end cap or a label only (N-terminal biotin on a linker: ttds)
Sequence (P50479 1-83): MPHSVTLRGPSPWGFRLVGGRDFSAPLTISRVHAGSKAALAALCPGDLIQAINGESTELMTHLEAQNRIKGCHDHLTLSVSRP

Binder	pKd
SVWLRKETRV [CYSLTR2, Q9NS75]	below the threshold
RSLEEEESQL [GRASP, Q7Z6J2]	below the threshold

biological target: T1, TJP3_1, O95049; assay: holdup assay; design: key: below the threshold = too weak to quantify, mostly under pKd 3.1 to 4; conditions: plain residues with an end cap or a label only (N-terminal biotin on a linker: ttds)

Binder	pKd
SVWLRKETRV [CYSLTR2, Q9NS75]	below the threshold
RSLEEEESQL [GRASP, Q7Z6J2]	below the threshold

biological target: T2, USH1C_1, Q9Y6N9; assay: holdup assay; design: key: below the threshold = too weak to quantify, mostly under pKd 3.1 to 4; conditions: plain residues with an end cap or a label only (N-terminal biotin on a linker: ttds)

Binder	pKd
SVWLRKETRV [CYSLTR2, Q9NS75]	below the threshold
RSLEEEESQL [GRASP, Q7Z6J2]	below the threshold

biological target: T3, RGS12, O14924; assay: holdup assay; design: key: below the threshold = too weak to quantify, mostly under pKd 3.1 to 4; conditions: plain residues with an end cap or a label only (N-terminal biotin on a linker: ttds)

Binder	pKd
SVWLRKETRV [CYSLTR2, Q9NS75]	below the threshold
RSLEEEESQL [GRASP, Q7Z6J2]	below the threshold

biological target: T4, TJP3_2, O95049; assay: holdup assay; design: key: below the threshold = too weak to quantify, mostly under pKd 3.1 to 4; conditions: plain residues with an end cap or a label only (N-terminal biotin on a linker: ttds)

Binder	pKd
SVWLRKETRV [CYSLTR2, Q9NS75]	below the threshold
RSLEEEESQL [GRASP, Q7Z6J2]	below the threshold

biological target: GRIP2_2, Q9C0E4; assay: holdup assay; design: key: below the threshold = too weak to quantify, mostly under pKd 3.1 to 4; conditions: plain residues with an end cap or a label only (N-terminal biotin on a linker: ttds)
Sequence (Q9C0E4 137-245): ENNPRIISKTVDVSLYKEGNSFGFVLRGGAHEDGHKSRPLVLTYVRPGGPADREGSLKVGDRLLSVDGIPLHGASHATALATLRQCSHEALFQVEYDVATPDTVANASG

Binder	pKd
SVWLRKETRV [CYSLTR2, Q9NS75]	below the threshold
RSLEEEESQL [GRASP, Q7Z6J2]	below the threshold

biological target: NHERF2_1, Q15599; assay: holdup assay; design: key: below the threshold = too weak to quantify, mostly under pKd 3.1 to 4; conditions: plain residues with an end cap or a label only (N-terminal biotin on a linker: ttds)
Sequence (Q15599 9-91): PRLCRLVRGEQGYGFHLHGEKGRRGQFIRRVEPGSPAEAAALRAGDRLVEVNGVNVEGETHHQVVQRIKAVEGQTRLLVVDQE

Binder	pKd
SVWLRKETRV [CYSLTR2, Q9NS75]	below the threshold
RSLEEEESQL [GRASP, Q7Z6J2]	below the threshold

biological target: T5, PDZD2_5, O15018; assay: holdup assay; design: key: below the threshold = too weak to quantify, mostly under pKd 3.1 to 4; conditions: plain residues with an end cap or a label only (N-terminal biotin on a linker: ttds)

Binder	pKd
SVWLRKETRV [CYSLTR2, Q9NS75]	below the threshold
RSLEEEESQL [GRASP, Q7Z6J2]	4.22

biological target: T6, PDZD4, Q76G19; assay: holdup assay; design: key: below the threshold = too weak to quantify, mostly under pKd 3.1 to 4; conditions: plain residues with an end cap or a label only (N-terminal biotin on a linker: ttds)

Binder	pKd
SVWLRKETRV [CYSLTR2, Q9NS75]	below the threshold
RSLEEEESQL [GRASP, Q7Z6J2]	below the threshold

biological target: T7, PDZRN3_2, Q9UPQ7; assay: holdup assay; design: key: below the threshold = too weak to quantify, mostly under pKd 3.1 to 4; conditions: plain residues with an end cap or a label only (N-terminal biotin on a linker: ttds)

Binder	pKd
SVWLRKETRV [CYSLTR2, Q9NS75]	below the threshold
RSLEEEESQL [GRASP, Q7Z6J2]	below the threshold

biological target: PARD3B_2, Q8TEW8; assay: holdup assay; design: key: below the threshold = too weak to quantify, mostly under pKd 3.1 to 4; conditions: plain residues with an end cap or a label only (N-terminal biotin on a linker: ttds)
Sequence (Q8TEW8 376-471): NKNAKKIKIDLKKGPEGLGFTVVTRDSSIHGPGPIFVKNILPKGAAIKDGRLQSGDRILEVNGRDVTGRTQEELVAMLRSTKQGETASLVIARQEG

Binder	pKd
SVWLRKETRV [CYSLTR2, Q9NS75]	below the threshold
RSLEEEESQL [GRASP, Q7Z6J2]	below the threshold

biological target: PTPN13_2, Q12923; assay: holdup assay; design: key: below the threshold = too weak to quantify, mostly under pKd 3.1 to 4; conditions: plain residues with an end cap or a label only (N-terminal biotin on a linker: ttds)
Sequence (Q12923 1363-1462): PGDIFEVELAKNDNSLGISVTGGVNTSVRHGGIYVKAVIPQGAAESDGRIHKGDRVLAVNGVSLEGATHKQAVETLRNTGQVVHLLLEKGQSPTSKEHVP

Binder	pKd
SVWLRKETRV [CYSLTR2, Q9NS75]	below the threshold
RSLEEEESQL [GRASP, Q7Z6J2]	below the threshold

biological target: T8, PTPN13_4, Q12923; assay: holdup assay; design: key: below the threshold = too weak to quantify, mostly under pKd 3.1 to 4; conditions: plain residues with an end cap or a label only (N-terminal biotin on a linker: ttds)

Binder	pKd
SVWLRKETRV [CYSLTR2, Q9NS75]	below the threshold
RSLEEEESQL [GRASP, Q7Z6J2]	below the threshold

biological target: RGS3, P49796-9; assay: holdup assay; design: key: below the threshold = too weak to quantify, mostly under pKd 3.1 to 4; conditions: plain residues with an end cap or a label only (N-terminal biotin on a linker: ttds)
Sequence (P49796 other isoform, or with tags, fused parts or gaps): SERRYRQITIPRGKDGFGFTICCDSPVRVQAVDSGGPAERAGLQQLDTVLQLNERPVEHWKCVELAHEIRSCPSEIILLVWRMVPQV

Binder	pKd
SVWLRKETRV [CYSLTR2, Q9NS75]	below the threshold
RSLEEEESQL [GRASP, Q7Z6J2]	below the threshold

biological target: T9, PDZD2_1, O15018; assay: holdup assay; design: key: below the threshold = too weak to quantify, mostly under pKd 3.1 to 4; conditions: plain residues with an end cap or a label only (N-terminal biotin on a linker: ttds)

Binder	pKd
SVWLRKETRV [CYSLTR2, Q9NS75]	below the threshold
RSLEEEESQL [GRASP, Q7Z6J2]	below the threshold

biological target: MAGI1_5, Q96QZ7; assay: holdup assay; design: key: below the threshold = too weak to quantify, mostly under pKd 3.1 to 4; conditions: plain residues with an end cap or a label only (N-terminal biotin on a linker: ttds)
Sequence (Q96QZ7 986-1098): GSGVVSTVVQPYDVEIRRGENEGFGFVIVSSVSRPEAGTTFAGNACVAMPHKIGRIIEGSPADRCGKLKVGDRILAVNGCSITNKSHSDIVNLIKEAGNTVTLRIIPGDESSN

Binder	pKd
SVWLRKETRV [CYSLTR2, Q9NS75]	4.57
RSLEEEESQL [GRASP, Q7Z6J2]	below the threshold

biological target: T10, APBA3_2, O96018; assay: holdup assay; design: key: below the threshold = too weak to quantify, mostly under pKd 3.1 to 4; conditions: plain residues with an end cap or a label only (N-terminal biotin on a linker: ttds)

Binder	pKd
SVWLRKETRV [CYSLTR2, Q9NS75]	below the threshold
RSLEEEESQL [GRASP, Q7Z6J2]	4.18

biological target: PARD3_1, Q8TEW0; assay: holdup assay; design: key: below the threshold = too weak to quantify, mostly under pKd 3.1 to 4; conditions: plain residues with an end cap or a label only (N-terminal biotin on a linker: ttds)
Sequence (Q8TEW0 264-372): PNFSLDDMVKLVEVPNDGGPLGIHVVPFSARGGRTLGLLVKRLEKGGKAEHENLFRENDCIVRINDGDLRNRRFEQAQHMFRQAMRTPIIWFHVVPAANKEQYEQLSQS

Binder	pKd
SVWLRKETRV [CYSLTR2, Q9NS75]	below the threshold
RSLEEEESQL [GRASP, Q7Z6J2]	below the threshold

biological target: T11, PDZD7_1, Q9H5P4; assay: holdup assay; design: key: below the threshold = too weak to quantify, mostly under pKd 3.1 to 4; conditions: plain residues with an end cap or a label only (N-terminal biotin on a linker: ttds)

Binder	pKd
SVWLRKETRV [CYSLTR2, Q9NS75]	below the threshold
RSLEEEESQL [GRASP, Q7Z6J2]	below the threshold

biological target: T12, SIPA1L3, O60292; assay: holdup assay; design: key: below the threshold = too weak to quantify, mostly under pKd 3.1 to 4; conditions: plain residues with an end cap or a label only (N-terminal biotin on a linker: ttds)

Binder	pKd
SVWLRKETRV [CYSLTR2, Q9NS75]	below the threshold
RSLEEEESQL [GRASP, Q7Z6J2]	below the threshold

biological target: T13, SHROOM3, Q8TF72; assay: holdup assay; design: key: below the threshold = too weak to quantify, mostly under pKd 3.1 to 4; conditions: plain residues with an end cap or a label only (N-terminal biotin on a linker: ttds)

Binder	pKd
SVWLRKETRV [CYSLTR2, Q9NS75]	below the threshold
RSLEEEESQL [GRASP, Q7Z6J2]	below the threshold

biological target: T14, USH1C_2, Q9Y6N9; assay: holdup assay; design: key: below the threshold = too weak to quantify, mostly under pKd 3.1 to 4; conditions: plain residues with an end cap or a label only (N-terminal biotin on a linker: ttds)

Binder	pKd
SVWLRKETRV [CYSLTR2, Q9NS75]	below the threshold
RSLEEEESQL [GRASP, Q7Z6J2]	below the threshold
